Results taken from patent US20190169308A1 (ALLIGATOR BIOSCIENCE, published 2019).

T1: recombinant human OX40 (R&D #1493-CD) (human, UniProt P43489 29-216, limits assumed)
T1 sequence (looked up): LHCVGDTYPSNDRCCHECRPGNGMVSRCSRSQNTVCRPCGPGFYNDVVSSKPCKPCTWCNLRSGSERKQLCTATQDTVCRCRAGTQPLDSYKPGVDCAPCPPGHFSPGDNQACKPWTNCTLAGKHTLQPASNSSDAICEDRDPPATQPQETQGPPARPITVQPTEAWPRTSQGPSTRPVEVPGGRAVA

B1: 1618/1619 (antibody, V domains shown)
VH: EVQLLESGGGLVQPGGSLRLSCAASGFTFSYGSMYWVRQAPGKGLEWVSSISSGSGSTYYADSVKGRFTISRDNSKNTLYLQMNSLRAEDTAVYYCARSSYYGSYYSIDYWGQGTLVTVSS
VL: DIQMTQSPSSLSASVGDRVTITCRASQSISSYLNWYQQKPGKAPKLLIYAASSLQSGVPSRFSGSGSGTDFTLTISSLQPEDFATYYCQQYYDNLPTFGQGTKLEIK
B2: 1202/1203 (antibody, V domains shown)
VH: EVQLLESGGGLVQPGGSLRLSCAASGFTFYGSSMSWVRQAPGKGLEWVSSIYYGSSGTYYADSVKGRFTISRDNSKNTLYLQMNSLRAEDTAVYYCARSYYGYFDYWGQGTLVTVSS
VL: DIQMTQSPSSLSASVGDRVTITCRASQSISSYLNWYQQKPGKAPKLLIYAASSLQSGVPSRFSGSGSGTDFTLTISSLQPEDFATYYCQQYYTVVPFTFGQGTKLEIK
B3: 1214/1215 (antibody, V domains shown)
VH: EVQLLESGGGLVQPGGSLRLSCAASGFTFSSYAMSWVRQAPGKGLEWVSSIGSGGGYTGYADSVKGRFTISRDNSKNTLYLQMNSLRAEDTAVYYCARVGHPFDYWGQGTLVTVSS
VL: DIQMTQSPSSLSASVGDRVTITCRASQSISSYLNWYQQKPGKAPKLLIYAASSLQSGVPSRFSGSGSGTDFTLTISSLQPEDFATYYCQQDAYPHTFGQGTKLEIK

Columns and labels:
biotinylated CD137 [1] = target: T2, biotinylated CD137 (UniProt Q07011 24-186, limits assumed, biotinylated); experiment: SPR MASS-1, biotinylated antigen on streptavidin chip, parental mAb (same value as printed at r8c7, repeated in the row of 1618-1210)
T2 sequence (Q07011 24-186 limits assumed): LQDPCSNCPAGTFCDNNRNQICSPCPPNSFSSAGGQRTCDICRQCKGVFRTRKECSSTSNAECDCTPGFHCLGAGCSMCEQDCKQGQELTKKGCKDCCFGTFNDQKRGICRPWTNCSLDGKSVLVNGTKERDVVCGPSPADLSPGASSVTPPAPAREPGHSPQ

[2] = target: T1, recombinant human OX40 (R&D #1493-CD); experiment: ELISA, coated OX40
Experimental: (§1) ELISA plates (Greiner #655074) were coated with 50 μl/well of recombinant human OX40 (R&D #1493-CD), CD40-Fc (Ancell #504-820) or CD137 (R&D #838-4B) diluted to a final concentration of 0.5 μg/ml in PBS for 1h at 37° C. or overnight at 4° C. Plates were washed with PBS+0.05% TWEEN20 (PBST), followed by block with PBST+1% bovine serum albumin (BSA). Antibody samples were prepared as serial 1/10 dilutions from 10-0.01 μg/ml in PBST+1% BSA and incubated for 1 h in room temperature, followed by detection using a horse radish peroxidase-conjugated anti-human kappa light chain antibody (AbD Serotec #STAR127P) and developed using SuperSignal ELISA Pico Chemiluminescent substrate (Pierce ThermoScientific #37069).

[3] = target: Human CD137 (R&D systems) (human, UniProt Q07011 24-186, limits assumed); experiment: SPR Biacore, amine-coupled CD137, mAb injected (bivalent)
Sequence of Human CD137 (R&D systems) (Q07011 24-186 limits assumed): as above
Experimental: Human CD137 (R&D systems) was immobilized to the Biacore™ sensor chip, CMS, using conventional amine coupling. The tested antibody and control (serially diluted 1/2 10-0.63 nM) were analyzed for binding in HBS-P (GE, #BR-1003-68) at a flow rate of […]. The association was followed for 5 minutes and the dissociation for 15 minutes. Regeneration was performed twice using 10 mM Glycine pH 1.7 for 30 seconds. The kinetic parameters and the affinity constants were calculated using 1:1 Langmuir model.

[4] = target: T3, recombinant human CD137-Fc (R&D #838-4B) (human, UniProt Q07011 24-186); experiment: ELISA, coated CD137-Fc
T3 construct: bought; also called CD137 (R&D #838-4B); not shown: Fc part, bought reagent, not described
T3 sequence (Q07011 24-186 limits assumed): as above
Experimental: (§2) Binding of CD137 antibodies to recombinant human CD137 was determined by sandwich ELISA. Briefly, ELISA plates (Greiner #655074) coated with recombinant human CD137-Fc (R&D #838-4B) were incubated with serial dilutions of the various CD137 antibodies to be investigated. CD137 antibodies were detected using HRP-conjugated goat-anti-human kappa light chain (AbD Serotec #STAR127P) and developed with SuperSignal ELISA Pico Chemiluminescent substrate (Pierce #37069). EC50 values of the various antibodies were determined in 2-6 separate experiments.

[5] = target: T4, cynomolgus CD137 on transfected CHO cells (cynomolgus; human); experiment: flow cytometry, CD137-transfected CHO cells
T4 construct: extracellular domain;domain: transmembrane and intracellular part; also called CHO-cyCD137; CHOcynoCD137
T4 sequence (P25942 other isoform, or with tags, fused parts or gaps): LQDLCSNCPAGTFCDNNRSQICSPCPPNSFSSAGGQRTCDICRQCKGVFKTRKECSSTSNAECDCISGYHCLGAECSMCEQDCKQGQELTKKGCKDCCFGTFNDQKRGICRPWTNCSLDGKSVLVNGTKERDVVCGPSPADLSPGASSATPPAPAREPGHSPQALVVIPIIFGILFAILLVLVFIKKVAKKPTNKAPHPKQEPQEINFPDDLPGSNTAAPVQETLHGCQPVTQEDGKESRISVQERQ
Experimental: (§3) Binding and EC50 was determined using flow cytometric analysis of CHO cells transfected with human CD137, cynomolgus CD137 or empty vector. The extracellular part of human or cynomolgus CD137 was fused to the transmembrane and intracellular part of human CD40 and cloned into pcDNA3.1. The vector was subsequently stably transfected into CHO cells. […] CD137-transfected and empty vector-transfected cells were incubated with CD137 antibodies for at least 1h at 4° C. to saturate the binding. In order to minimize antibody internalization, 0.05% sodium azide was used in the incubation buffer and all work was performed on ice. […] Directly after staining the cells were fixed with a paraformaldehyde solution (10x concentrate BD CellFIX, BD biosciences #340181). Cells were analyzed by flow cytometry using FACSVerse (BD Biosciences). The median fluorescence intensity (MFI) for each sample was determined and the dose response data was analysed using Graph Pad Prism.
(§4) MFI data was normalized for each antibody, where 0% is defined as the lowest value and 100% is the highest value in the dose titration for each antibody.

[6] = target: T4, cynomolgus CD137 on transfected CHO …; experiment: flow cytometry, CHO-cyCD137; 95% CI of EC50
Experimental: as §3, §4

[7] = target: T5, full-length human CD137 construct 1030 (human, UniProt Q07011 24-255); experiment: flow cytometry, 293-F cells with full-length CD137 (reference of the normalization)
T5 construct: whole, on cells; on transfected FreeStyle 293-F cells; also called Full-length CD137
T5 sequence (Q07011 24-255): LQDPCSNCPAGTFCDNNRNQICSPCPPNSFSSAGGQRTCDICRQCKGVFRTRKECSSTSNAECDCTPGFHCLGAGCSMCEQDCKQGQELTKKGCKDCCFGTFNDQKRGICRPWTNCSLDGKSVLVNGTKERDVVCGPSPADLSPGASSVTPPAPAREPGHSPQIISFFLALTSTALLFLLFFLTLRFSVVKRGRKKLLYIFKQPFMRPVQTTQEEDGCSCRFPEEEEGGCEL
Experimental: (§5) The ability of each antibody to bind to a panel of human/mouse CD137 chimeras expressed on the surface of transfected cells was analyzed by flow cytometry.
(§6) The chimeras were designed by exchanging domains or modules of the human CD137 with the corresponding mouse domain (FIG. 7). Genes of CD137 human/mouse chimeras were synthesized (GenScript) and constructs cloned into pcDNA3.1 vector (Invitrogen) and transiently transfected into FreeStyle 293-F cells (Invitrogen). The transfected cells were incubated with CD137 antibodies and control antibodies, followed by incubation with anti-human IgG-PE (Jackson Immunoresearch) for detection and analyzed with FACS Verse (BD Biosciences). Binding to the different chimeric constructs was calculated as relative MFI compared to the binding of the isotype control, followed by normalization to the full-length human CD137 construct to minimize the effect of affinity differences between individual antibodies.

[8] = target: T6, human CD137 on transfected CHO cells (human, UniProt Q07011 24-186; P25942 194-277, limits assumed); experiment: flow cytometry, CHO-huCD137; 95% CI of EC50
T6 construct: extracellular domain;domain: transmembrane and intracellular part; also called CHO-huCD137; CHOhCD137
T6 sequence (Q07011 other isoform, or with tags, fused parts or gaps limits assumed): as the sequence (P25942 other isoform, or with tags, fused parts or gaps) above, with L4P, S19N, K50R, I66T, S67P, Y69F, E75G, A149V counted along it
Experimental: as §3, §4

biotinylated CD137 [9] = target: T2, biotinylated CD137; experiment: SPR MASS-1, biotinylated antigen on streptavidin chip, parental mAb
[10] = target: T7, CD40-Fc (Ancell #504-820) (human, UniProt P25942 21-193); experiment: ELISA, coated CD40-Fc
T7 construct: not shown: Fc part, bought reagent, not described
T7 sequence (P25942 21-193 limits assumed): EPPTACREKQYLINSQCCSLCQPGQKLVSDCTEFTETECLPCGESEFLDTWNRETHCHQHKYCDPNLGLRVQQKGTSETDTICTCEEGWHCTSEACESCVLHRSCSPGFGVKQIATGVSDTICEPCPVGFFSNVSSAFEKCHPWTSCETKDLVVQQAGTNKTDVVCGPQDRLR
Experimental: as §1

[11] = target: T8, human/mouse CD137 chimera 1551; experiment: flow cytometry, 293-F cells with CD137 chimera
T8 construct: on transfected FreeStyle 293-F cells
Experimental: as §5, §6

[12] = target: T9, human/mouse CD137 chimera 1552; experiment: flow cytometry, 293-F cells with CD137 chimera
T9 construct: on transfected FreeStyle 293-F cells
Experimental: as §5, §6

[13] = target: T10, human/mouse CD137 chimera 1555; experiment: flow cytometry, 293-F cells with CD137 chimera
T10 construct: on transfected FreeStyle 293-F cells
Experimental: as §5, §6

[14] = target: T11, human/mouse CD137 chimera 1550; experiment: flow cytometry, 293-F cells with CD137 chimera
T11 construct: on transfected FreeStyle 293-F cells
Experimental: as §5, §6

[15] = target: T12, human/mouse CD137 chimera 1554; experiment: flow cytometry, 293-F cells with CD137 chimera
T12 construct: on transfected FreeStyle 293-F cells
Experimental: as §5, §6

[16] = target: T13, human/mouse CD137 chimera 1553; experiment: flow cytometry, 293-F cells with CD137 chimera
T13 construct: on transfected FreeStyle 293-F cells
Experimental: as §5, §6

[17] = target: T7, CD40-Fc (Ancell #504-820); experiment: ELISA, coated CD40-Fc; coated CD40-Fc
Experimental: as §1

[18] = target: T3, recombinant human CD137-Fc (R&D #838-4B); experiment: ELISA, coated CD137 (R&D #838-4B)
[19] = target: T3, recombinant human CD137-Fc (R&D #838-4B); experiment: ELISA, coated CD137-Fc; remark: listed apart in the source
Experimental: as §2

[20] = target: T8, human/mouse CD137 chimera 1551; experiment: flow cytometry, 293-F cells with CD137 chimera; Exp 2
Experimental: as §5, §6

[21] = target: T9, human/mouse CD137 chimera 1552; experiment: as above
Experimental: as §5, §6

[22] = target: T10, human/mouse CD137 chimera 1555; experiment: as above
Experimental: as §5, §6

[23] = target: T11, human/mouse CD137 chimera 1550; experiment: as above
Experimental: as §5, §6

[24] = target: T12, human/mouse CD137 chimera 1554; experiment: as above
Experimental: as §5, §6

[25] = target: T13, human/mouse CD137 chimera 1553; experiment: as above
Experimental: as §5, §6

[26] = target: T8, human/mouse CD137 chimera 1551; experiment: flow cytometry, 293-F cells with CD137 chimera; Exp 1
Experimental: as §5, §6

[27] = target: T9, human/mouse CD137 chimera 1552; experiment: as above
Experimental: as §5, §6

[28] = target: T10, human/mouse CD137 chimera 1555; experiment: as above
Experimental: as §5, §6

[29] = target: T11, human/mouse CD137 chimera 1550; experiment: as above
Experimental: as §5, §6

[30] = target: T12, human/mouse CD137 chimera 1554; experiment: as above
Experimental: as §5, §6

[31] = target: T13, human/mouse CD137 chimera 1553; experiment: as above
Experimental: as §5, §6

Row | Binder | binding result [2] | Kd [3] [nM] | koff [3] [s⁻¹] | kon [3] [M⁻¹ s⁻¹] | EC50 [4] [nM] | Ratio, cyno:human [5] | EC50 [6] [µg/mL] | MFI/isotype control normalized to full-length human CD137 [7] | EC50 [8] [µg/mL] | binding result [10] | MFI/isotype control normalized to full-length human CD137 [11] | MFI/isotype control normalized to full-length human CD137 [12] | MFI/isotype control normalized to full-length human CD137 [13] | MFI/isotype control normalized to full-length human CD137 [14] | MFI/isotype control normalized to full-length human CD137 [15] | MFI/isotype control normalized to full-length human CD137 [16] | other results
1 | B1 | no binding (tested: 10 µg/ml) | 0.107 | 0.00011 | 1.02e+06 | 0.35 | 0.77 | 0.086 to 0.15 | 1 | 0.11 to 0.19 | no binding (tested: 10 µg/ml) | 0.67 | 1.2 | 0.12 | 0.11 | 1.01 | 1.24 | Kd (biotinylated CD137 [1]): 0.156 nM; Kd (biotinylated CD137 [9]): 0.156 nM
2 | B2 | – | 0.976 | 0.00066 | 676000 | 0.41 | 0.67 | 0.11 to 0.17 | 1 | 0.16 to 0.27 | – | 0.05 | 0.06 | 0.26 | 0.05 | 0.51 | 0.65 | EC50 [17]: > 40 nM; EC50 [10]: > 10 µg/mL; EC50 [18]: 0.4 nM; EC50 [19]: ~0.06 µg/mL
3 | B3 | no binding (tested: 10 µg/ml) | – | – | – | – | – | – | – | – | no binding (tested: 10 µg/ml) | – | – | – | – | – | – | MFI/isotype control normalized to full-length human CD137 [20]: 0.15; MFI/isotype control normalized to full-length human CD137 [21]: 0.13; MFI/isotype control normalized to full-length human CD137 [22]: 0.45; MFI/isotype control normalized to full-length human CD137 [23]: 0.14; MFI/isotype control normalized to full-length human CD137 [24]: 0.15; MFI/isotype control normalized to full-length human CD137 [25]: 0.15; MFI/isotype control normalized to full-length human CD137 [26]: 0.07; MFI/isotype control normalized to full-length human CD137 [27]: 0.32; MFI/isotype control normalized to full-length human CD137 [28]: 0.3; MFI/isotype control normalized to full-length human CD137 [29]: 0.06; MFI/isotype control normalized to full-length human CD137 [30]: 0.26; MFI/isotype control normalized to full-length human CD137 [31]: 0.41
